In article doi:10.1101/2025.02.03.636340:

Target: HA-SNAP-mGluR3 (rat metabotropic glutamate receptor 3) (rat), P31422
Assay: SiMPull with photobleaching step analysis
Conditions: remark: other sources report otherwise

% of spots with 2 bleaching steps in the receptor channel: 50%
stoichiometry N: 2
B1: HA-SNAP-mGluR3 (rat metabotropic glutamate receptor 3), P31422 23-879 (receptor)
chain: LGDHNFMRREIKIEGDLVLGGLFPINEKGTGTEECGRINEDRGIQRLEAMLFAIDEINKDNYLLPGVKLGVHILDTCSRDTYALEQSLEFVRASLTKVDEAEYMCPDGSYAIQENIPLLIAGVIGGSYSSVSIQVANLLRLFQIPQISYASTSAKLSDKSRYDYFARTVPPDFYQAKAMAEILRFFNWTYVSTVASEGDYGETGIEAFEQEARLRNICIATAEKVGRSNIRKSYDSVIRELLQKPNARVVVLFMRSDDSRELIAAANRVNASFTWVASDGWGAQESIVKGSEHVAYGAITLELASHPVRQFDRYFQSLNPYNNHRNPWFRDFWEQKFQCSLQNKRNHRQVCDKHLAIDSSNYEQESKIMFVVNAVYAMAHALHKMQRTLCPNTTKLCDAMKILDGKKLYKEYLLKINFTAPFNPNKGADSIVKFDTFGDGMGRYNVFNLQQTGGKYSYLKVGHWAETLSLDVDSIHWSRNSVPTSQCSDPCAPNEMKNMQPGDVCCWICIPCEPYEYLVDEFTCMDCGPGQWPTADLSGCYNLPEDYIKWEDAWAIGPVTIACLGFLCTCIVITVFIKHNNTPLVKASGRELCYILLFGVSLSYCMTFFFIAKPSPVICALRRLGLGTSFAICYSALLTKTNCIARIFDGVKNGAQRPKFISPSSQVFICLGLILVQIVMVSVWLILETPGTRRYTLPEKRETVILKCNVKDSSMLISLTYDVVLVILCTVYAFKTRKCPENFNEAKFIGFTMYTTCIIWLAFLPIFYVTSSDYRVQTTTMCISVSLSGFVVLGCLFAPKVHIVLFQPQKNVVTHRLHLNRFSVSGTATTYSQSSASTYVPTVCNGREVLDSTTSSL
modifications: here or on the partner: SNAP tag labelled with SBG-JF646; SNAP tag labelled with SBG-JF646
